According to paper PMC8476643 (Nature Communications, 2021):

Assays:
[1] = target: T1, SARS-CoV two-proline stabilized S trimer (S-2P) (SARS-CoV (GenBank NC_004718.3), UniProt P59594, stabilised); assay: SPR; conditions: both partners purified
T1 construct: also called SARS-CoV S-2P

[2] = target: T1, SARS-CoV two-proline stabilized S …; assay: SPR; conditions: both partners purified; remark: listed apart in the source

| Binder | Kd [1] [nM] | koff [1] [s⁻¹] | kon [1] [M⁻¹ s⁻¹] | Kd [2] [nM] |
| --- | --- | --- | --- | --- |
| 6D6 monoclonal antibody (antibody, V domains shown, also called mAb 6D6; source: mouse hybridoma, ascites, purified (protein A agarose); copies: 2 + 2) VH: EVQLQQSGAELVKPGASVKLSCTTSGFNIIDTYMHWVKQRPEEGLEWIGGIDPVNGNSEYDPKFQDKATITADTSSNTAYLHLSRLTSEDTAVYYCASAHYYGSSSSFPYWGQGTLVTVSA VL: DIVMTQSQKFMSTSVGDRVSVTCKASQNVGTHVAWYQQKPGQSPKALIYSASYRYSGVPDRFTGSGVGTDFTLTITNVQSEDLAEYFCQQYNSYFTFGSGTKLEIK | 2.14 | 5.56e-05 | 30600 |  |
| 7D6 monoclonal antibody (antibody, V domains shown, also called mAb 7D6; source: mouse hybridoma, ascites, purified (protein A agarose); copies: 2 + 2) VH: EVQLQQSGAELVRPGASVKLSCTASGFNIKDTYIHWVKQRPEQGLEWIGRIDPGDGDTEYDPSFQGKATITADTSSNTAYLELSSLTSEDTAVYYCTRFYDYVDYGMDYWGQGTSVTVSS VL: DIQMTQSPASLSASVGETVTITCRASGNIHNYLAWYQQKQGKSPQLLVYNAKTLADGVPSRFSGSGSGTQYSLKINSLQPEDFGSYYCQHFWSTPPWTFGGGTKLEVK | 5.04 | 0.000241 | 47800 | 5.88 |
